We go through four proteins from patent US20250163169.

The target of series [1] is T1, 43-mer covering the stalk region of CD95L (residue 103 to residue 145).
T1 chain: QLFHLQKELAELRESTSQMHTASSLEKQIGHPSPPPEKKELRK

A further series has as its target T2, Recombinant Ig-CD95L.
T2 chain: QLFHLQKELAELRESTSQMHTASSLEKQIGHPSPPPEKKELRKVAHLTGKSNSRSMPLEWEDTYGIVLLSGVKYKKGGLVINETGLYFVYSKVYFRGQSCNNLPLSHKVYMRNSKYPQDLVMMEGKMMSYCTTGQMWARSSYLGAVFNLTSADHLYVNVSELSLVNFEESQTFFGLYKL

B1: MMP12 (protein)
chain: GPVWRKHYITYRINNYTPDMNREDVDYAIRKAFQVWSNVTPLKFSKINTGMADILVVFARGAHGDFHAFDGKGGILAHAFGPGSGIGGDAHFDEDEFWTTHSGGTNLFLTAVHEIGHSLGLGHSSDPKAVMFPTYKYVDINTFRLSADDIRGIQSLYGDPKENQRLPNPDNSEPALCDPNLSFDAVTTVGNKIFFFKDRFFWLKVSERPKTSVNLISSLWPTLPSGIEAAYEIEARNQVFLFKDDKYWLISNLRPEPNYPKSIHSFGFPNFVKKIDAAVFNPRFYRTYFFVDNQYWRYDERRQMMDPGYPKLITKNFQGIGPKIDAVFYSKNKYYYFFQGSNQFEYDFLLQRITKTLKSNSWFGC
As to B1, the “percentage of degradation of the 43-mer (LC-MS/MS)” value (from here on “percentage”) in series [1] was “more of 20% of cleavage”.

B2: MMP2 (protein)
chain: YNFFPRKPKWDKNQITYRIIGYTPDLDPETVDDAFARAFQVWSDVTPLRFSRIHDGEADIMINFGRWEHGDGYPFDGKDGLLAHAFAPGTGVGGDSHFDDDELWTLGEGQVVRVKYGNADGEYCKFPFLFNGKEYNSCTDTGRSDGFLWCSTTYNFEKDGKYGFCPHEALFTMGGNAEGQPCKFPFRFQGTSYDSCTTEGRTDGYRWCGTTEDYDRDKKYGFCPETAMSTVGGNSEGAPCVFPFTFLGNKYESCTSAGRSDGKMWCATTANYDDDRKWGFCPDQGYSLFLVAAHEFGHAMGLEHSQDPGALMAPIYTYTKNFRLSQDDIKGIQELYGASPDIDLGTGPTPTLGPVTPEICKQDIVFDGIAQIRGEIFFFKDRFIWRTVTPRDKPMGPLLVATFWPELPEKIDAVYEAPQEEKAVFFAGNEYWIYSASTLERGYPKPLTSLGLPPDVQRVDAAFNWSKNKKTYIFAGDKFWRYNEVKKKMDPGFPKLIADAWNAIPDNLDAVVDLQGGGHSYFFKGAYYLKLENQSLKSVKFGSIKSDWLGC
In the case of B2, the “cleavage of Ig-CD95L (western blotting)” value in the series with Recombinant Ig-CD95L was “Using this Ig-CD95L, we showed that MMP2 and MMP3 can cleave CD95L”. Besides, in series [1], the “percentage” value is on record as “more of 20% of cleavage”.

B3: ADAM10 (protein)
chain: TTSAEKNTCQLYIQTDHLFFKYYGTREAVIAQISSHVKAIDTIYQTTDFSGIRNISFMVKRIRINTTADEKDPTNPFRFPNIGVEKFLELNSEQNHDDYCLAYVFTDRDFDDGVLGLAWVGAPSGSSGGICEKSKLYSDGKKKSLNTGIITVQNYGSHVPPKVSHITFAHEVGHNFGSPHDSGTECTPGESKNLGQKENGNYIMYARATSGDKLNNNKFSLCSIRNISQVLEKKRNNCFVESGQPICGNGMVEQGEECDCGYSDQCKDECCFDANQPEGRKCKLKPGKQCSPSQGPCCTAQCAFKSKSEKCRDDSDCAREGICNGFTALCPASDPKPNFTDCNRHTQVCINGQCAGSICEKYGLEECTCASSDGKDDKELCHVCCMKKMDPSTCASTGSVQWSRHFSGRTITLQPGSPCNDFRGYCDVFMRCRLVDADGPLARLKKAIFSPELYENIAE
Turning to B3, in series [1], the “percentage” value is reported as “more of 20% of cleavage”.

B4: MMP7 (protein)
chain: YSLFPNSPKWTSKVVTYRIVSYTRDLPHITVDRLVSKALNMWGKEIPLHFRKVVWGTADIMIGFARGAHGDSYPFDGPGNTLAHAFAPGTGLGGDAHFDEDERWTDGSSLGINFLYAATHELGHSLGMGHSSDPNAVMYPTYGNGDPQNFKLSQDDIKGIQKLYGKRSNSRKK
On to B4, for which the “percentage” value in series [1] is recorded as “more of 20% of cleavage”.
